# Results: patent US20250043302A1, “MUTATED HYDROXYPHENYLPYRUVATE DIOXYGENASE POLYPEPTIDE, AND CODING GENE AND USE THEREOF” (BEIJING DABEINONG BIOTECHNOLOGY CO., LTD., priority 2021, published 2025)
# B1: AtHPPD-02: nucleotide sequence encoding wild-type Arabidopsis thaliana HPPD; vector DBN11730 (nucleic acid)
# DNA: ATGGGACATCAGAATGCTGCTGTATCAGAAAATCAAAATCATGATGATGGAGCCGCCTCCTCACCAGGGTTTAAGTTGGTTGGGTTCTCCAAGTTTGTACGGAAGAACCCAAAATCCGACAAGTTCAAGGTTAAACGCTTCCACCACATTGAATTCTGGTGCGGCGACGCCACCAATGTTGCTCGGCGTTTTTCATGGGGTTTAGGCATGAGATTCTCAGCAAAGAGTGACCTGAGCACCGGCAACATGGTTCATGCTAGCTATCTCTTAACATCTGGAGATTTGAGGTTTCTTTTCACGGCGCCGTACTCACCATCACTCTCCGCCGGCGAGATCAAACCCACCACGACTGCAAGCATACCTTCATTTGATCATGGTAGTTGCAGATCCTTCTTCTCGTCGCACGGCCTAGGGGTGCGCGCGGTCGCCATCGAAGTTGAAGATGCAGAATCAGCGTTTAGTATCAGCGTGGCAAATGGAGCTATTCCTTCCTCCCCTCCAATTGTCCTCAATGAGGCTGTAACTATTGCCGAGGTGAAGTTGTATGGAGATGTTGTGCTGAGATATGTTTCTTACAAGGCAGAGGACACTGAGAAATCTGAATTTTTGCCTGGTTTTGAAAGGGTCGAGGATGCTTCAAGTTTTCCTCTTGATTACGGCATACGACGGTTGGATCACGCGGTTGGAAATGTACCAGAACTTGGGCCGGCGCTCACTTATGTGGCTGGTTTCACTGGATTCCATCAATTTGCTGAGTTCACAGCTGATGATGTTGGGACTGCTGAAAGTGGGTTGAACTCTGCAGTCCTCGCCTCTAATGATGAAATGGTGCTCCTCCCGATCAACGAGCCTGTGCATGGCACCAAAAGGAAATCACAAATACAGACATATCTTGAGCACAATGAAGGTGCAGGGCTTCAACATCTTGCACTGATGTCTGAAGACATTTTCCGTACGCTGAGAGAGATGAGGAAGAGAAGTAGTATTGGTGGATTTGACTTCATGCCTTCTCCCCCACCAACTTACTACCAGAACTTGAAGAAGAGGGTTGGTGATGTGCTATCTGATGACCAGATCAAGGAGTGTGAAGAATTGGGCATTCTTGTTGATCGGGACGACCAAGGAACATTACTGCAGATATTTACAAAACCACTTGGTGACCGCCCCACTATTTTTATTGAGATCATACAAAGAGTCGGCTGCATGATGAAGGATGAGGAAGGAAAAGCATATCAATCTGGTGGTTGTGGCGGCTTTGGGAAAGGAAACTTCTCTGAGCTGTTCAAATCCATCGAGGAGTATGAGAAGACCTTGGAGGCCAAGCAGCTCGTGGGTTGA
# modifications: AtHPPD-02 Nucleotide Sequence
# notes: vector DBN11730
# What was measured:
# Assay type in all cases: in vivo
# [1] = system: Arabidopsis thaliana T1 plants; experiment: Topramezone tolerance of transgenic Arabidopsis thaliana T1 plants (spray, bleached leaf area grade, damage score); conditions: for Classification and statistics of the grade of pesticide damage Grade 0: number of plants at grade 0; for Classification and statistics of the grade of pesticide damage Grade 1: number of plants at grade 1; for Classification and statistics of the grade of pesticide damage Grade 2: number of plants at grade 2; for Classification and statistics of the grade of pesticide damage Grade 3: number of plants at grade 3; for Classification and statistics of the grade of pesticide damage: Grade 0 / Classification and statistics of the grade of pesticide damage: Grade 1 / Classification and statistics of the grade of pesticide damage: Grade 2 / Classification and statistics of the grade of pesticide damage: Grade 3: number of plants
# Method in brief: (§1)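 T1 transformants selected by glufosinate; 18-day-old plants, with empty-vector and wild-type controls, sprayed with topramezone (25–200 g ai/ha), isoxaflutole (35–280 g ai/ha) or mesotrione (52.5–420 g ai/ha), water as 0×. Bleached leaf area fraction scored at 7 DAT as grades 0–3.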
# [2] = system: Arabidopsis thaliana T1 plants; experiment: Isoxaflutole tolerance of transgenic Arabidopsis thaliana T1 plants (spray, bleached leaf area grade, damage score); design: Scores (pesticide damage): scale not given here; conditions: for Classification and statistics of the grade of pesticide damage: Grade 0 (number of plants) / Classification and statistics of the grade of pesticide damage: Grade 1 (number of plants) / Classification and statistics of the grade of pesticide damage: Grade 2 (number of plants) / Classification and statistics of the grade of pesticide damage: Grade 3 (number of plants): 16 plants; for Classification and statistics of the grade of pesticide damage Grade 0 / Classification and statistics of the grade of pesticide damage Grade 1 / Classification and statistics of the grade of pesticide damage Grade 2 / Classification and statistics of the grade of pesticide damage Grade 3: number of plants in grade
# Method in brief: as §1
# [3] = system: Arabidopsis thaliana T1 plants; experiment: Mesotrione tolerance of transgenic Arabidopsis thaliana T1 plants (spray, bleached leaf area grade, damage score); design: Scores: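 damage score 0-100 computed as Σ(N×S)/(T×M)×100 over grades 0-3 with higher meaning more damage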; conditions: for Grade 0 (classification and statistics of the grade of pesticide damage; number of plants) / Grade 1 (classification and statistics of the grade of pesticide damage; number of plants) / Grade 2 (classification and statistics of the grade of pesticide damage; number of plants) / Grade 3 (classification and statistics of the grade of pesticide damage; number of plants): 16 plants; for Classification and statistics of the grade of pesticide damage Grade 0 / Classification and statistics of the grade of pesticide damage Grade 1 / Classification and statistics of the grade of pesticide damage Grade 2 / Classification and statistics of the grade of pesticide damage Grade 3: number of plants in grade
# Method in brief: as §1
# [4] = Table 13, topramezone 25 g ai/ha (1×)
# [5] = Table 13, topramezone 100 g ai/ha (4×)
# [6] = topramezone 25 g ai/ha (1×), 7 DAT, Table 4
# [7] = topramezone 100 g ai/ha (4×), 7 DAT, Table 4
# [8] = isoxaflutole 35 g ai/ha (0.5x field concentration), spray, Arabidopsis thaliana T1 plants
# [9] = isoxaflutole 70 g ai/ha (1x field concentration), spray, Arabidopsis thaliana T1 plants
# [10] = mesotrione 52.5 g ai/ha, Arabidopsis thaliana T1 plants
# [11] = mesotrione 105 g ai/ha, Arabidopsis thaliana T1 plants
molecule,measurement,setting,value
B1,Resistance evaluation,[1]; [4],Non-resistant
same,Classification and statistics of the grade of pesticide damage Grade 0,[1]; [4],0
same,Classification and statistics of the grade of pesticide damage Grade 1,[1]; [4],0
same,Classification and statistics of the grade of pesticide damage Grade 2,[1]; [4],0
same,Classification and statistics of the grade of pesticide damage Grade 3,[1]; [4],16
same,Scores,"[1]; Table 13, topramezone 25 g ai/ha (1×), pesticide damage score",100
same,Resistance evaluation,[1]; [5],Non-resistant
same,Classification and statistics of the grade of pesticide damage Grade 0,[1]; [5],0
same,Classification and statistics of the grade of pesticide damage Grade 1,[1]; [5],0
same,Classification and statistics of the grade of pesticide damage Grade 2,[1]; [5],0
same,Classification and statistics of the grade of pesticide damage Grade 3,[1]; [5],16
same,Scores,"[1]; Table 13, topramezone 100 g ai/ha (4×), pesticide damage score",100
same,Classification and statistics of the grade of pesticide damage: Grade 0,[1]; [6],0
same,Classification and statistics of the grade of pesticide damage: Grade 1,[1]; [6],0
same,Classification and statistics of the grade of pesticide damage: Grade 2,[1]; [6],0
same,Classification and statistics of the grade of pesticide damage: Grade 3,[1]; [6],16
same,Classification and statistics of the grade of pesticide damage: Grade 0,[1]; [7],0
same,Classification and statistics of the grade of pesticide damage: Grade 1,[1]; [7],0
same,Classification and statistics of the grade of pesticide damage: Grade 2,[1]; [7],0
same,Classification and statistics of the grade of pesticide damage: Grade 3,[1]; [7],16
same,Scores,"[1]; pesticide damage score 0-100, topramezone 25 g ai/ha (1×), 7 DAT, Table 4",100
same,Scores,"[1]; pesticide damage score 0-100, topramezone 100 g ai/ha (4×), 7 DAT, Table 4",100
same,Resistance evaluation,[1]; [6],non-resistant (non-resistant plants (scores 68-100))
same,Resistance evaluation,[1]; [7],non-resistant (non-resistant plants (scores 68-100))
same,Resistance evaluation,[2]; isoxaflutole 35 g ai/ha,Non-resistant
same,Scores,[2]; isoxaflutole 35 g ai/ha,100
same,Resistance evaluation,[2]; [8],Non-resistant
same,Scores (pesticide damage),[2]; [8],100
same,Classification and statistics of the grade of pesticide damage: Grade 0 (number of plants),[2]; [8],0
same,Classification and statistics of the grade of pesticide damage: Grade 1 (number of plants),[2]; [8],0
same,Classification and statistics of the grade of pesticide damage: Grade 2 (number of plants),[2]; [8],0
same,Classification and statistics of the grade of pesticide damage: Grade 3 (number of plants),[2]; [8],16
same,Classification and statistics of the grade of pesticide damage Grade 0,[2]; isoxaflutole 35 g ai/ha,0
same,Classification and statistics of the grade of pesticide damage Grade 1,[2]; isoxaflutole 35 g ai/ha,0
same,Classification and statistics of the grade of pesticide damage Grade 2,[2]; isoxaflutole 35 g ai/ha,0
same,Classification and statistics of the grade of pesticide damage Grade 3,[2]; isoxaflutole 35 g ai/ha,16
same,Resistance evaluation,[2]; isoxaflutole 70 g ai/ha,Non-resistant
same,Scores,[2]; isoxaflutole 70 g ai/ha,100
same,Resistance evaluation,[2]; [9],Non-resistant
same,Scores (pesticide damage),[2]; [9],100
same,Classification and statistics of the grade of pesticide damage: Grade 0 (number of plants),[2]; [9],0
same,Classification and statistics of the grade of pesticide damage: Grade 1 (number of plants),[2]; [9],0
same,Classification and statistics of the grade of pesticide damage: Grade 2 (number of plants),[2]; [9],0
same,Classification and statistics of the grade of pesticide damage: Grade 3 (number of plants),[2]; [9],16
same,Classification and statistics of the grade of pesticide damage Grade 0,[2]; isoxaflutole 70 g ai/ha,0
same,Classification and statistics of the grade of pesticide damage Grade 1,[2]; isoxaflutole 70 g ai/ha,0
same,Classification and statistics of the grade of pesticide damage Grade 2,[2]; isoxaflutole 70 g ai/ha,0
same,Classification and statistics of the grade of pesticide damage Grade 3,[2]; isoxaflutole 70 g ai/ha,16
same,Resistance evaluation,[3]; mesotrione 52.5 g ai/ha,Non-resistant
same,Scores,[3]; mesotrione 52.5 g ai/ha,100
same,Resistance evaluation,[3]; [10],Non-resistant
same,Scores,[3]; [10],100
same,Grade 0 (classification and statistics of the grade of pesticide damage; number of plants),[3]; [10],0
same,Grade 1 (classification and statistics of the grade of pesticide damage; number of plants),[3]; [10],0
same,Grade 2 (classification and statistics of the grade of pesticide damage; number of plants),[3]; [10],0
same,Grade 3 (classification and statistics of the grade of pesticide damage; number of plants),[3]; [10],16
same,Classification and statistics of the grade of pesticide damage Grade 0,[3]; mesotrione 52.5 g ai/ha,0
same,Classification and statistics of the grade of pesticide damage Grade 1,[3]; mesotrione 52.5 g ai/ha,0
same,Classification and statistics of the grade of pesticide damage Grade 2,[3]; mesotrione 52.5 g ai/ha,0
same,Classification and statistics of the grade of pesticide damage Grade 3,[3]; mesotrione 52.5 g ai/ha,16
same,Resistance evaluation,[3]; mesotrione 105 g ai/ha,Non-resistant
same,Scores,[3]; mesotrione 105 g ai/ha,100
same,Resistance evaluation,[3]; [11],Non-resistant
same,Scores,[3]; [11],100
same,Grade 0 (classification and statistics of the grade of pesticide damage; number of plants),[3]; [11],0
same,Grade 1 (classification and statistics of the grade of pesticide damage; number of plants),[3]; [11],0
same,Grade 2 (classification and statistics of the grade of pesticide damage; number of plants),[3]; [11],0
same,Grade 3 (classification and statistics of the grade of pesticide damage; number of plants),[3]; [11],16
same,Classification and statistics of the grade of pesticide damage Grade 0,[3]; mesotrione 105 g ai/ha,0
same,Classification and statistics of the grade of pesticide damage Grade 1,[3]; mesotrione 105 g ai/ha,0
same,Classification and statistics of the grade of pesticide damage Grade 2,[3]; mesotrione 105 g ai/ha,0
same,Classification and statistics of the grade of pesticide damage Grade 3,[3]; mesotrione 105 g ai/ha,16
